T1: human TNFR2 on the cell surface (CHO-TNFR2 cells; human Treg cells) (human, UniProt P20333 23-461)
T1 construct: whole, on cells; The assay field of each row says which cells; also called TNFR2-CHO cell; TNFR2 on Treg cells
T1 sequence (looked up): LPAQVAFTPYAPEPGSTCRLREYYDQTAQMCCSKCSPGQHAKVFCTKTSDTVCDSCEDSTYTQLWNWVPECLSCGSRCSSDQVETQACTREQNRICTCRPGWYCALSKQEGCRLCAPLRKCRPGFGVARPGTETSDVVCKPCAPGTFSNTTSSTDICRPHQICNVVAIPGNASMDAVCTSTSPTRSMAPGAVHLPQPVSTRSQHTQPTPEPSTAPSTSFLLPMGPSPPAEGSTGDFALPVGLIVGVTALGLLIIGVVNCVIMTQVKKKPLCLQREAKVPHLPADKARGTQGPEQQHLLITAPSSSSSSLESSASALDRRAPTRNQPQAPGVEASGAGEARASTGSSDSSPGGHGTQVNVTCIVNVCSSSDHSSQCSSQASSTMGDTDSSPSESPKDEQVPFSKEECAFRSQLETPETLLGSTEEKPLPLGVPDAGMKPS

T2: human TNFR2 (Novoprotein, Catalog No. C830) (human, UniProt P20333 23-257, limits assumed)
T2 construct: construct not described; also called TNFR2 protein
T2 sequence (looked up): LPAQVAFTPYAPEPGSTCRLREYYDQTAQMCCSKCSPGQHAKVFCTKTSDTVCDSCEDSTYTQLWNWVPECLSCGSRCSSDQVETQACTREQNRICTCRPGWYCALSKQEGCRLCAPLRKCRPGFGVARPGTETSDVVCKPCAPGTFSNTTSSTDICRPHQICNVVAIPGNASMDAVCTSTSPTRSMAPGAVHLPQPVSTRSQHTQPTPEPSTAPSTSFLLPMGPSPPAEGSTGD

T3: human CREG-His protein (human, UniProt O75629 32-220, limits assumed)
T3 construct: Control antigen in ELISA; also called control human CREG-His
T3 sequence (looked up): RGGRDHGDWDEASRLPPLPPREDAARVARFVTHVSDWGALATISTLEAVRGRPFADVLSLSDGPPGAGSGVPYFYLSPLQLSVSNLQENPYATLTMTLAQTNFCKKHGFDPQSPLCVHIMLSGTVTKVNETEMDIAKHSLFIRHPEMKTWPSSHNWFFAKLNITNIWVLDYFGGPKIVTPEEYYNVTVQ

T4: Human TNFR2 recombinant protein (Sino 10417-H08H) (human, UniProt P20333 23-257)
T4 construct: also called hTNFR2 (His tag)
T4 sequence (looked up): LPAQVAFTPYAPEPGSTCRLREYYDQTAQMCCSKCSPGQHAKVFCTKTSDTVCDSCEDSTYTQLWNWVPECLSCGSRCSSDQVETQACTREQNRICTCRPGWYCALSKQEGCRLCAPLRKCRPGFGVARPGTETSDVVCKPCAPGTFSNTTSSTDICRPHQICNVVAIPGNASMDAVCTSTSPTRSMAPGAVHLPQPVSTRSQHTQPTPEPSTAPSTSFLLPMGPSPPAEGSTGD

T5: cynomolgus TNFR2 (Sino 90102-C08H) (cynomolgus, UniProt A0A2K5VET2 132-366)
T5 construct: also called CynoTNFR2 (His tag)
T5 sequence: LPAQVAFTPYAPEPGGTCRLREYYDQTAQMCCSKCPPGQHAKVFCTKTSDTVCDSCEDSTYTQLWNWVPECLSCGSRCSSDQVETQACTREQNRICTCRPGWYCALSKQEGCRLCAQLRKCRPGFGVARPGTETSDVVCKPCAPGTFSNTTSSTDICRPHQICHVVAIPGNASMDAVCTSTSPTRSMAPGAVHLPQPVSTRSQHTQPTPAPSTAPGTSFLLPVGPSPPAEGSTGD


Assays:
[1] = target: T1, human TNFR2 on the cell surface …; experiment: flow cytometry, blocking of TNFα-biotin on CHO-TNFR2 cells; AUC for 002# / AUC for antibody x 100
Description: CHO cells that stably overexpressed human TNFR2 were used for experiments. The cells were resuscitated and passaged until in good state, and the expression level of human TNFR2 on the cells was assessed by FACS. Compared to the isotype control, the assay could be carried out when the fold change of mean fluorescence intensity (MFI) was more than 100 times.
CHO-TNFR2 cells were digested, washed twice with DPBS and stained with Live/Dead (L/D) at room temperature for 20 min, and then seeded at 1×10⁵ cells/50 μl/well. […] The diluted antibodies were added 50 μl/well into wells pre-seeded with cells, and gently blown and mixed to make the final concentrations of the antibodies to 20, 6.67, 2.22, 0.74, 0.247, 0.08, 0.027 and 0 nM, respectively followed by incubation at 4° C. for 30 min. […] After washing twice with the staining buffer, 100 μl/well of PE-streptavidin was added and incubated at 4° C. for 30 min. After additional washing with the staining buffer twice, 150 μl resuspended cells was analyzed using an flow cytometry. Taking the logarithmic value of the antibody concentrations as abscissa and the corresponding MFI value as ordinate, the inhibition curve of the antibody was drawn, and the IC50 value was calculated by four parameters fitting.

[2] = target: T2, human TNFR2 (Novoprotein, Catalog No. …); experiment: blocking ELISA, TNFα-biotin on coated human TNFR2; 002# OD / antibody OD x 100
Description: (§1) A microplate was pre-coated with 100 μl/well of 1 μg/ml human TNFR2 (Novoprotein, Catalog No. C830). […] After washing the plate, a Streptavidin-HRP working solution (1:10000 dilution) was added at 100 μl/well, and incubated with shaking at room temperature for 40 min. The plate was washed again, the HRP substrate TMB was added for color development, the termination solution was added to terminate the reaction, and the microplate reader was used to read the absorption value.

human CREG-His protein = target: T3, human CREG-His protein; experiment: ELISA
[3] = target: T1, human TNFR2 on the cell surface …; experiment: flow cytometry, blocking of TNFα-biotin on CHO-TNFR2 cells
[4] = target: T2, human TNFR2 (Novoprotein, Catalog No. …); experiment: blocking ELISA, TNFα-biotin on coated human TNFR2, antibody 20 nM
Description: as §1

[5] = target: T4, Human TNFR2 recombinant protein (Sino …); experiment: SPR Biacore, antibody on Protein A chip, TNFR2 analyte
Description: (§2) In this experiment, Protein A chip was used, and the time required for the chip to capture the diluted antibody was determined by manual run, so that the Rmax of the saturated binding antigen was 50 RU. Human TNFR2 (Sino 10417-H08H) and cynomolgus TNFR2 (Sino 90102-C08H) were diluted to 32, 16, 8, 4, 2 nM. The affinity of antibody and antigen was measured by multi-cycle kinetics. In each cycle, anti-TNFR2 antibodies were injected prior to the injection of gradient concentrations of TNFR2 protein allowing the occurrence of antibody-antigen association and dissociation. After each cycle, the Protein A chip was regenerated with Glycine pH1.5 (to remove the protein on the chip). BIAcore T200 analysis software was used to calculate the affinity KD of antibody binding to antigen.

[6] = target: T5, cynomolgus TNFR2 (Sino 90102-C08H); experiment: as above
Description: as §2

| Binder | AUC % [1] [%] | % to 002# OD (2 nM) [2] [%] | % to 002# OD (20 nM) [2] [%] | binding result (human CREG-His protein) | Antibody AUC [3] | ELISA OD of antibodies to be tested (20 nM) [4] [OD] | Kd [5] [nM] | koff [5] [s⁻¹] | kon [5] [M⁻¹ s⁻¹] | Kd [6] [nM] | koff [6] [s⁻¹] | kon [6] [M⁻¹ s⁻¹] |
| --- | --- | --- | --- | --- | --- | --- | --- | --- | --- | --- | --- | --- |
| TNFR2 antibody #219 (antibody, V domains shown) VH: EVQLQESGAELVRPGASVKLSCKASGYSFTNYWMNWVKQRPGQGLEWIGMIHPSDTETRLNQNFKDKATLTVDKSSSTSYMQLSSPTSEDSAVYYCARGEGLGAARSVSMDYWGQGTTVTVSS VL: DILMTQSPSSLSASLGDRVTISCRASQDISNYLNWYQQKPDGTVKVLIYYTAILHSGVPSRFSGSGSGTDYSLTISNLEQEDIATYFCQQGNTLPWTFGGGTKLEIK | 93.7 | 89.7 | 89 | no binding (tested: 28 ng/ml) | 14900 | 0.28 | 0.234 | 8.4e-05 | 358000 | 0.863 | 0.000481 | 558000 |
| TNFR2 antibody #125 (antibody, V domains shown) VH: EVQLQESGGGLVQPGGSLNLSCAASGFAFSIYDLSWVRQTPEKRLEWVAYINNGGISTYYSDTVKGRFTISRDNAKNTLYLQMSSLKSEDTAMYYCVRGPFYGSANYFDYWGQGTTVTVSS VL: DIQMTQSPASLSLSVGETVTITCRASENIYSNLAWYQQKQGKSPQLLVYDATKLAEGVPSRFSGSESGTQYSLKINSLQSEDFGTYYCQHFWVTPWTFGGGTKLEIK | 121 | 113 | 154 | no binding (tested: 28 ng/ml) | 37000 | 0.161 | 0.0681 | 5.57e-05 | 817000 | 0.151 | 0.000155 | 1.02e+06 |
| TNFR2 antibody #001 (antibody, V domains shown, also called antibody #1) VH: EVQLQESGGGLVQPGGSLNLSCAASGFAFSTYDLSWVRQTPEKRLEWVAYINNGGISTYYSDTVKGRFTISRDNAKNTLYLQMSSLKSEDTAMYYCVRGPFYGSANYFDYWGQGTTVTVSS VL: EIVMTQSPASLSLSVGETVTITCRTSESIYSNLPWYQQKQGKSPQLLVYDATKLAEGVPSRFSGSESGTQYSLKINSLQSEDFGTYYCQHFWVTPWTFGGGTKLEIK | 88.3 | 84.2 | 126 | no binding (tested: 28 ng/ml) | 34300 | 0.198 | 0.161 | 8.95e-05 | 556000 | 0.279 | 0.000185 | 662000 |

Second part, the binder after the results:

| AUC % [1] [%] | % to 002# OD (2 nM) [2] [%] | % to 002# OD (20 nM) [2] [%] | binding result (human CREG-His protein) | Antibody AUC [3] | ELISA OD of antibodies to be tested (20 nM) [4] [OD] | Kd [5] [nM] | koff [5] [s⁻¹] | kon [5] [M⁻¹ s⁻¹] | Kd [6] [nM] | koff [6] [s⁻¹] | kon [6] [M⁻¹ s⁻¹] | Binder |
| --- | --- | --- | --- | --- | --- | --- | --- | --- | --- | --- | --- | --- |
| 99.9 | 74.6 | 110 | no binding (tested: 28 ng/ml) | 17300 | 0.454 | 2.94 | 0.00388 | 1.32e+06 | 3.61 | 0.0102 | 2.82e+06 | TNFR2 antibody #133 (antibody, V domains shown) VH: EVQLQESGAELVRSGASVKLSCTASGFNIKDYYIQWVKQRPEQGLEWIGWIDPESGNTKYAPKFQDKATMTADTSSNTAYLQLSGLTSEDSAVYYCNAYYDYDGSMDYWGQGTTVTVSS VL: DIVMTQSPLSLPVSLGDQASISCRSSQSLVHSNGNTYLHWYLQKPGQSPKLLIYKVSNRFSGVPDRFSGSGSGTDFTLKISRVETDDLGVYFCSQSTHVPTWTFGGGTKLEIK |
| 100 | 101 | 277 | no binding (tested: 28 ng/ml) | 40000 | 0.123 | 0.101 | 2.36e-05 | 233000 | 0.273 | 0.000116 | 425000 | TNFR2 antibody #224 (antibody, V domains shown) VH: EVQLQESGPEIVKPGASVKLSCTASGFNNKDIYMHWVKQRPEQGLEWIGRIDPATGNTKHDPKFQDKATLSSDTSSNTAYLQFSSLTSEDTAVYYCAHSPYGDFGAMDYWGQGTTVTVSS VL: DIQMTQSPAIMSASLGERVTMTCTASSSVSSNYLHWYQQKPGSSPKLWIYSTSNLPSGVPARFSGSGSGTSYSLTISSMEAEDAATYYCHQYHRSPWTFGGGTKLEIK |
| 98.7 | 95.7 | 105 | no binding (tested: 28 ng/ml) | 18600 | 0.237 | 0.194 | 7.14e-05 | 369000 | 0.577 | 0.000318 | 551000 | TNFR2 antibody #226 (antibody, V domains shown) VH: EVQLQESGAELVRPGASVKLSCKASGYSFTNYWMNWVKQRPGQGLEWIGMIHPSDSETRLNQKFKDKATLTVDKSSSTAYMQLSSPTSEDSAVYYCARGEGLGAARSVSMDYWGQGTTVTVSS VL: DIQMTQSPSSLSASLGDRVTISCRASQDISNYLNWYQQKPDGTVKVLIYYTALLHSGVPSRFSGSGSGTDYSLTISNLEQEDIATYFCQQGNTLPWTFGGGTKLEIK |
| 75.4 | 69.3 | 94.1 | no binding (tested: 12 ng/mL) | 24300 | 0.35 | 0.107 | 5.46e-05 | 510000 | 0.286 | 0.000172 | 601000 | TNFR2 antibody #088 (antibody, V domains shown) VH: EVQLQESGGGLVQPGGSLNLSCAASGFAFSTYDLSWVRQTPGKRLEWVAYINNGGISTYYSDTVKGRFTITRDNAKNTLYLQMSSLKSEDTAMYYCVRGPFYGSANYFDYWGQGTTVTVSS VL: DILMTQSPASLSLFVGETVTITCRASENIYSNLAWYQQKQGKSPQLLVYDATKLAEGVPSRFSGSESGTQYSLKINSLQSEDFGTYYCQHFWVTPWTFGGGTKLEIK |
